{"source": "patent US20020165186", "about": "“Compounds that affect CD83 expression, pharmaceutical compositions comprising said compounds and methods for identifying said compounds” (published 2002)", "key": {"HuR (ELAV, ELAVL1) [1]": {"biological_target": "T1, HuR (ELAV, ELAVL1) (Homo sapiens, UniProt Q15717 SEQ:1-326)", "T1 sequence (Q15717 whole entry T180A, the tested form may be a part)": "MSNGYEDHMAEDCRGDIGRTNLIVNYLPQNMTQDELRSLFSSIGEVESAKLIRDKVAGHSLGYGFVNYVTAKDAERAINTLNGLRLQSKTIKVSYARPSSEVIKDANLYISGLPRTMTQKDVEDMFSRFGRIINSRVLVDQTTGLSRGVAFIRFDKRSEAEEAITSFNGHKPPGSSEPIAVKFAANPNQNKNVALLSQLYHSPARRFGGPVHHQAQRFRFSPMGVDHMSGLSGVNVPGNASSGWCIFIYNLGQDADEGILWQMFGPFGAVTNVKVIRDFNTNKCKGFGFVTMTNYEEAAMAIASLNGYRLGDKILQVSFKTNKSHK", "assay": "SPR; GST-HuR captured on CM5 chip; HBS-EP buffer", "conditions": "tags: N-terminal GST (pGEX-5X-1), E. coli BL21; 3-pronged stem-loop (predicted)", "source_text": "Specific protein-RNA interactions were detected by Surface Plasmon Resonance using the BIACore X optical biosensor (Pharmacia Biosensor AB, Upsala, Sweden).\nThe GST-fusion proteins of interest (GST alone or GST-ELAV (HuR)) were immobilized onto the surface of a CM5 Chip (Pharmacia Biosensor AB, Upsala, Sweden) by using the BIACore GST Capture Kit (Pharmacia Biosensor AB, Upsala, Sweden), according to the manufacturers instructions, until a change of at least 1,000 resonance units (RU) was detectable.\n1 μg of in vitro transcribed RNA (using the T7/SP6 Riboprobe Kit, Promega, Mannheim, Germany) was diluted in a total volume of 80 μl HBS-EP buffer (10 mM HEPES, 150 mM NaCl, 3 mM EDTA, 0.005% (v/v) polysorbate 20) and was allowed to flow over the chip at a flow rate of 50μl/minute. The standard running buffer was HBS-EP buffer. The sensor surface was regenerated between assays by injecting 30 μl of 0.5 M NaCl to remove bound analyte."}, "HuR (ELAV, ELAVL1) [2]": {"biological_target": "T1, HuR (ELAV, ELAVL1)", "assay": "EMSA", "conditions": "tags: N-terminal GST (pGEX-5X-1), E. coli BL21, label: 32P-UTP"}}}
{"binder": "CD83 RNA nt466-615 (stem-loop-2) (ssRNA) RNA: UUAACACUCAUCAUUUUCACUUGUAAGUUUGCACGGCUACAGAGUAUCUUCCCAGAUUUUUCUAAAGCUGGCAUGGAACGAGCUUUUCUCCCAGUUACCUCCCCAAAUAAGCAUUUAGGGCUAGUGACUCCUCACAAGACAGAACUGGUA", "values": [{"measurement": "binding result", "setting": "HuR (ELAV, ELAVL1) [1]", "value": "binds"}]}
{"binder": "CD83 RNA nt295-465 (stem-loop-1) (ssRNA) RNA: AGCUGCAACUCGGGGACAUACAGGUGCACUCUGCAGGACCCGGAUGGGCAGAGAAACCUAAGUGGCAAGGUGAUCUUGAGAGUGACAGGAUGCCCUGCACAGCGUAAAGAAGAGACUUUUAAGAAAUACAGAGCGGAGAUUGUCCUGCUGCUGGCUCUGGUUAUUUUCUAC", "values": [{"measurement": "binding result", "setting": "HuR (ELAV, ELAVL1) [2]; single stem-loop (nt412-465, predicted)", "value": "binds"}]}
{"binder": "CD83 RNA nt466-618 (stem-loop-2) (ssRNA) RNA: UUAACACUCAUCAUUUUCACUUGUAAGUUUGCACGGCUACAGAGUAUCUUCCCAGAUUUUUCUAAAGCUGGCAUGGAACGAGCUUUUCUCCCAGUUACCUCCCCAAAUAAGCAUUUAGGGCUAGUGACUCCUCACAAGACAGAACUGGUAUGA", "values": [{"measurement": "binding result", "setting": "HuR (ELAV, ELAVL1) [2]; 3-pronged stem-loop (predicted)", "value": "binds"}]}
